Values of other authors in patent US7410776B2, “Polypeptides, their production and use” (Takeda Pharmaceutical Company Limited, priority 1997, dated 2008).

Target: T1, APJ (Homo sapiens, UniProt P35414)
T1 construct: host or cells: CHO cells
T1 sequence (P35414 1-380): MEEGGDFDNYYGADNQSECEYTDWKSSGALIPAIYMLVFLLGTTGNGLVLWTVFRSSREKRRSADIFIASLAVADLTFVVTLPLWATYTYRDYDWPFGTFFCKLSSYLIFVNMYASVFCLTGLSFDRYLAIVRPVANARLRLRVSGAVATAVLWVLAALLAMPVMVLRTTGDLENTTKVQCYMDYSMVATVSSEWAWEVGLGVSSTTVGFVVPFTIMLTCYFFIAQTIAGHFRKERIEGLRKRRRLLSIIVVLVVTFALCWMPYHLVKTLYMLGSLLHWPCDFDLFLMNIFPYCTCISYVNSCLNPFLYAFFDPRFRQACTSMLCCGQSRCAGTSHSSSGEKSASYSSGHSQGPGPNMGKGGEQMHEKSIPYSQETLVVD
Conditions: APJ expressed in CHO cells

Substance: angiotensin II (DRVYIHPF; Angiotensin-2; UniProt P01019 25-32, looked up) [known peptide tested on APJ expressed in CHO cells]
- reaction with APJ: no reaction was detected at all
